Data reported in publication PMC4351158 (Structure (London, England : 1993), 2015).
Residue numbers refer to the chain shown, from its start. Where no end group is shown, it is not given here. fluorescein = fluorescein, a fluorescent label on the peptide N-terminus

What was measured:
Experiment in all cases: fluorescence polarisation
DegS D221A/H198P = target: T1, DegS D221A/H198P (E. coli, UniProt P0AEE3 27-355, D221A | H198P)
T1 sequence (looked up): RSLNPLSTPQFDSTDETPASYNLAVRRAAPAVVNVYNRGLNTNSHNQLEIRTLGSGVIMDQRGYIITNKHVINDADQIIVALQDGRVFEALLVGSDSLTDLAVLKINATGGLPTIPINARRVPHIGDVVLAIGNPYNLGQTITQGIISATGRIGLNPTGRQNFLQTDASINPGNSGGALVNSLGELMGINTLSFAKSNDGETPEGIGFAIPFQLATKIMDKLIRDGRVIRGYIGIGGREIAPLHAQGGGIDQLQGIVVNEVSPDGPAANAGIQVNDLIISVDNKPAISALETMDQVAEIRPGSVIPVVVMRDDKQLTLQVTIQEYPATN

DegS F220A/H198P = target: T2, DegS F220A/H198P (E. coli, UniProt P0AEE3 27-355, F220A | H198P)
T2 sequence (looked up): T1 sequence (looked up) with F194A, A195D

DegS F220A = target: T3, DegS F220A (E. coli, UniProt P0AEE3 27-355, F220A)
T3 sequence (looked up): T1 sequence (looked up) with P172H, F194A, A195D

DegS Y162A = target: T4, DegS Y162A (E. coli, UniProt P0AEE3 27-355, Y162A)
T4 sequence (looked up): T1 sequence (looked up) with Y136A, P172H, A195D

DegS F234A = target: T5, DegS F234A (E. coli, UniProt P0AEE3 27-355, F234A)
T5 sequence (looked up): T1 sequence (looked up) with P172H, A195D, F208A

DegS I179A = target: T6, DegS I179A (E. coli, UniProt P0AEE3 27-355, I179A)
T6 sequence (looked up): T1 sequence (looked up) with I153A, P172H, A195D

B1: fluorescent OMP peptide fluorescein-DNRDGNVYYF (peptide)
peptide: fluorescein-DNRDGNVYYF
Question: For B1, which Kd (DegS D221A/H198P) is on record?
Answer: The Kd was 1700 ± 100 nM.

Question: What about the Kd (DegS F220A/H198P) of the same binder?
Answer: Its Kd is 1600 ± 100 nM.

Question: What about the Kd (DegS F220A) of the same binder?
Answer: The Kd was 2100 ± 100 nM.

Question: And the Kd (DegS Y162A)?
Answer: The Kd was 1900 ± 400 nM.

Question: And the Kd (DegS F234A)?
Answer: The Kd was 5900 ± 600 nM.

Question: What about the Kd (DegS I179A) of the same binder?
Answer: Its Kd is 2300 ± 400 nM.
